Data from article doi:10.1101/202184 (bioRxiv, 2017).

T1: SecY (wild type, subunit of Escherichia coli SecYEG) (E. coli, UniProt P0AGA2 1-443)
T1 sequence: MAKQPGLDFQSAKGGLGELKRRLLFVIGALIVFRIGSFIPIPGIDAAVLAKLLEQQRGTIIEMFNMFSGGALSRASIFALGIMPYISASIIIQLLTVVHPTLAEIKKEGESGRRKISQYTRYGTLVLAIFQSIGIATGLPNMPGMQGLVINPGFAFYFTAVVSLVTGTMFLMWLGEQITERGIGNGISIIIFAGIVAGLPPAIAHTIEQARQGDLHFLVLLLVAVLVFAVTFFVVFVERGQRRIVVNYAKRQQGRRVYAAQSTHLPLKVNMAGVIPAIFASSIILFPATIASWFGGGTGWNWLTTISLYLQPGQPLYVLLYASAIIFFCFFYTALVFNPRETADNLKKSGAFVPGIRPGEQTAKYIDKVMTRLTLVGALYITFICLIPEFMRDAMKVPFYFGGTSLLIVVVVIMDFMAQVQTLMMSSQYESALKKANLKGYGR

B1: SecE (subunit of Escherichia coli SecYEG) (natural protein)
chain: MSANTEAQGSGRGLEAMKWVVVVALLLVAIVGNYLYRDIMLPLRALAVVILIAAAGGVALLTTKGKATVAFAREARTEVRKVIWPTRQETLHTTLIVAAVTAVMSLILWGLDGILVRLVSFITGLRF
B2: SecG (subunit of Escherichia coli SecYEG) (natural protein)
chain: MYEALLVVFLIVAIGLVGLIMLQQGKGADMGASFGAGASATLFGSSGSGNFMTRMTALLATLFFIISLVLGNINSNKTNKGSEWENLSAPAKTEQTQPAAPAKPTSDIPN

How the values were obtained:
[1] = molecular target: T1, SecY (wild type, subunit of Escherichia …); test: native MS
[2] = molecular target: B1; test: native MS

binding result [1] | binding result [2] | Binder
binds | – | B1
binds | binds | B2
